The results in this text go back to US12281162 (LANOVA MEDICINES DEVELOPMENT, dated 2025).

B1: 40A5B2 (chimeric) (antibody, V domains shown)
VH: EVQLQQSGPELVKPGASVKMSCKASGYTFTRNIMHWVKQKPGQGLEWIGYINPYNAGSKYNEKFKGKATLTSDISSSTAYMELSSLTSEDSAVYYCAREEVYYRYGAWFAYWGHGTLVTVSA
VL: DIVLTQSPASLAVSLGQRATISCRASQSVSTSSYSYMHWYQQKPGQPPKLLIKYASNLESGVPARFSGSGSGTDFTLNIHPVEEEDTATYYCQHSWEIPRTFGGGTKLEIK
B2: 29B2C10 (chimeric) (antibody, V domains shown)
VH: EVQLQQSGPELVKPGASMKLSCKASGYSFTGYTMHWVKQSHGENLEWIGLINPYNGGTNYNQKFKGKATLTVDKSSSTAYMELLSLTSEDSAVYYCSRWGLRRAMDYWGQGTSVTVSS
VL: DIVMTQSQKFMSTSVGDRVSVTCKASQNVGSNVAWYQQKPGQSPKALIYSASYRYSGVPDRFTGNGSGTDFTLTISNVQSEDLAEYFCQQYYNSPWTFGGGTKLEIK
B3: 38A10E9A11 (chimeric) (antibody, V domains shown)
VH: QVQLQQSGAELARPGASVKMSCKASGYTFTTYTMHWVKQRPGQGLEWIGYINPSSGYTNYNQKFKDKATLTAGKSSSTAYMQLSSLTSEDSAVYYCASLRSRGYFDYWGRGTTLTVSS
VL: DIVMTQSQKFLSTSVGDRVSITCKASQNVGTAVAWYQQKPGQSPKLLIYSASNRYTGVPDRFTGSGSGTDFTLTISNMQSEDLAGYFCQQYSSYPYTFGGGTKLEIK
notes: also called 38A9E10A11
B4: 21C3C11B3 (chimeric) (antibody, V domains shown)
VH: QVQLQQSGAELVRPGTSVKVSCKASGYAFINYLIEWIKQRPGQGLEWIGMINPGSGGTNYNEKFKDKATLTADKSSSTAYMQLSSLTSDDSAVYFCARNWDVWGQGTTLTVSS
VL: DVVMTQSPLSLPVSLGDQASVSCRSSQSLVHSTGNTYLHWYLQKPGQSPKLLIYKVSNRFSGVPDRFSGSGSGTDFTLKISRVEAEDLGVYFCSQSTHVPWTFGGGTKLEIK
B5: 58F9G10-XI (antibody, V domains shown)
VH: EVQLQQSGPELVKTGASVKISCKASGYSFTGYYIHWVKQSHGKSLEWIGYISCYNGATSFNQKFKGKATFTVDTSSSTAYMQFNSLTSEDSAVYYCARTELRGPWFAYWGQGTLVTVSA
VL: QTVLTQSPAIMSASPGEKVTMTCSASSSVSYMNWYQQKSGTSPKRWIYDTSKLASGVPARFSGSGSGTSYSLTISSMEAEDAATYYCQQWSNNPLTFGAGTKLELK
notes: also called 58F9G10 (chimeric); 58-XI
B6: 34-H1L1 (antibody, V domains shown)
VH: EVQLVESGGGLVKPGGSLRLSCAASGFTFSSYGMSWVRQAPGKGLEWVSTISSGGSYTYYPDSVKGRFTISRDNAKNSLYLQMNSLRAEDTAVYYCARQGGDAMDYWGQGTLVTVSS
VL: DIQMTQSPSSLSASVGDRVTITCRASQSINNNLHWYQQKPGKAPKLLIYYASQSISGVPSRFSGSGSGTDFTLTISSLQPEDFATYYCQQSNSRLTFGGGTKVEIK
notes: humanized 34D3H1, VH v1 x VL v1
B7: 58-H1L1 (antibody, V domains shown)
VH: QVQLVQSGAEVKKPGASVKVSCKASGYSFTGYYIHWVRQAPGQGLEWMGYISSYNAATSFNQKFKGRVTMTRDTSTSTVYMELSSLRSEDTAVYYCARTELRGPWFAYWGQGTLVTVSS
VL: DIQMTQSPSSLSASVGDRVTITCSASSSVSYMNWYQQKPGKAPKLLIYDTSKLASGVPSRFSGSGSGTDFTLTISSLQPEDFATYYCQQWSNNPLTFGQGTKLEIK
notes: humanized 58F9G10, VH v1 x VL v1
B8: 58-H3L1 (antibody, V domains shown)
VH: B7 VH with R38K, M48I, M70F, R72V, L83F
VL: B7 VL
notes: humanized 58F9G10, VH v3 x VL v1
B9: 37-H1L1 (antibody, V domains shown)
VH: EVQLVESGGGLVQPGGSLRLSCAASGFTFSDYWMNWVRQAPGKGLEWVAEIRLKSNNYATHYAESVKGRFTISRDNAKNSLYLQMNSLRAEDTAVYYCARPLLWFRRYYAMDYWGQGTLVTVSS
VL: DIQMTQSPSSLSASVGDRVTITCSASQGISNYLNWYQQKPGKAPKLLIYYTSSLHSGVPSRFSGSGSGTDFTLTISSLQPEDFATYYCQQYSKLPFTFGQGTKLEIK
notes: humanized 37B9C4, VH v1 x VL v1; also called 37B9C4 (H1L1)
B10: 37-H2L3 (antibody, V domains shown)
VH: B9 VH with A40S, N79S, A99T
VL: B9 VL with V19I, A43T, P44V, F71Y, Q100S
notes: humanized 37B9C4, VH v2 x VL v3
B11: 37-H3L1 (antibody, V domains shown)
VH: B9 VH with A40S, N76D, A77S, N79S, L81V, A99T
VL: B9 VL
notes: humanized 37B9C4, VH v3 x VL v1
B12: 37-H3L2 (antibody, V domains shown)
VH: B9 VH with A40S, N76D, A77S, N79S, L81V, A99T
VL: B9 VL with A43T, P44V, F71Y
notes: humanized 37B9C4, VH v3 x VL v2
B13: 37-H3L3 (antibody, V domains shown)
VH: B9 VH with A40S, N76D, A77S, N79S, L81V, A99T
VL: B9 VL with V19I, A43T, P44V, F71Y, Q100S
notes: humanized 37B9C4, VH v3 x VL v3
B14: 37-H2L1 (antibody, V domains shown)
VH: B9 VH with A40S, N79S, A99T
VL: B9 VL
notes: humanized 37B9C4, VH v2 x VL v1

Residue numbers refer to the chain shown, from its start.

T1 sequence (Q9NZD1 whole entry): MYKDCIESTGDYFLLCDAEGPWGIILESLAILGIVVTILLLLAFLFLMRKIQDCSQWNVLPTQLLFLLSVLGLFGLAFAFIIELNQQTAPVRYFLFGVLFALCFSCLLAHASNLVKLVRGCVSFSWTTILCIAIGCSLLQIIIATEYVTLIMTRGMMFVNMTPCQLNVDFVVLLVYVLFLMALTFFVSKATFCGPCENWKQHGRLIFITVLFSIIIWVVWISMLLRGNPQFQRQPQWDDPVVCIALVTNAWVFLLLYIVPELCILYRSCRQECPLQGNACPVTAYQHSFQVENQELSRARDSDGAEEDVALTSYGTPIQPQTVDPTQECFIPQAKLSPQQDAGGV

One test addresses T1, human G-protein-coupled receptor family C group 5 member D (GPRC5D) (human, UniProt Q9NZD1 1-345).
T1 construct: whole, on cells; also called human GPRC5D protein
Put plainly: FACS, CHO-K1/human GPRC5D, chimeric antibody. As for the experimental part:
CHO—K1 cells stably expressed human GPRC5D, were harvested from flasks. 100 µl of 1×10⁶ cells/ml of cells were incubated with primary chimeric antibodies in 3-fold serial dilutions starting from 300 nM to 0.001 nM for 30 minutes on ice. After being washed with 200 µl of FACS buffer twice, cells were incubated with secondary antibody for 30 minutes on ice. Cells were washed with 200 µl of FACS buffer twice and transferred to BD Falcon 5 ml tube and analyzed by FACS.
In the case of B1, the Bottom turned out to be 1490, the LogEC50 was 0.344, the Span amounted to 439000 and the Top came out at 440000.

On to B2, for which the Bottom turned out to be 4330, the LogEC50 came to 0.342, the Span amounted to 426000 and the Top came to 430000.

B3 came in with a Bottom of 3020, a LogEC50 of 0.245, a Span of 384000 and a Top of 387000.

In the case of B4, the Bottom amounted to 5770, the LogEC50 amounted to 0.229, the Span was 398000 and the Top came to 404000.

B5 had a Bottom of -522, a LogEC50 of 0.36, a Span of 415000 and a Top of 415000.

A further test has as its target T1, human G-protein-coupled receptor family …. Kind of test: FACS, CHO-K1/GPRC5D.
In turn, B6 came in with a Bottom of 10900, a LogEC50 of 0.591, a Span of 186000 and a Top of 197000.

Another test shares this target. Kind of test: FACS, CHO-K1/GPRC5D. The source holds these as a separate data set.
B7 registered a Bottom of 15000, a LogEC50 of 0.252, a Span of 92800 and a Top of 108000.

B8: the Bottom turned out to be 9890, the LogEC50 is -0.192, the Span was 93800 and the Top is 104000.

B5 displayed a Bottom of 6700, a LogEC50 of 0.292, a Span of 121000 and a Top of 127000.

The next test has the same target. Put plainly: FACS, CHO-K1/human GPRC5D.
B6 gave a Bottom of 171, a LogEC50 of 0.781, a Span of 119000 and a Top of 119000.

In the case of B7, the Bottom came to 275, the LogEC50 turned out to be 0.579, the Span was found to be 99200 and the Top was 99500.

Turning to B8, the Bottom is 75.4, the LogEC50 was 0.612, the Span is 104000 and the Top worked out at 104000.

B5 displayed a Bottom of 52.2, a LogEC50 of 0.556, a Span of 107000 and a Top of 107000.

B9 registered a Bottom of 523, a LogEC50 of 0.511, a Span of 102000 and a Top of 102000.

The target is the same in another test. Put plainly: FACS, CHO-K1/GPRC5D. This is another data set of the same source.
Turning to B9, the Bottom was 9600, the LogEC50 was determined as 0.357, the Span worked out at 169000 and the Top was 178000.

Turning to B10, the Bottom came to 8050, the LogEC50 is 0.333, the Span is 160000 and the Top came out at 168000.

Regarding B11, the Bottom turned out to be 6370, the LogEC50 stood at 0.292, the Span was 173000 and the Top is 179000.

For B12, the Bottom was 9190, the LogEC50 was determined as 0.315, the Span was determined as 170000 and the Top was determined as 179000.

Take B13: the Bottom stood at 7780, the LogEC50 was 0.285, the Span worked out at 173000 and the Top was 181000.

Take B14: the Bottom was found to be 9180, the LogEC50 stood at 0.351, the Span worked out at 166000 and the Top was determined as 175000.

The target is the same in a further test. Kind of test: FACS, NCI-H929 cells.
As to B6, the Bottom worked out at 199, the LogEC50 is 0.805, the Span was 17700 and the Top was found to be 17900.

As to B7, the Bottom was found to be 281, the LogEC50 is 0.165, the Span worked out at 13200 and the Top was 13500.

As to B8, the Bottom is 276, the LogEC50 came to 0.3, the Span worked out at 13700 and the Top amounted to 13900.

As for B5, the Bottom was found to be 261, the LogEC50 was found to be 0.16, the Span turned out to be 14500 and the Top was determined as 14700.

Molecule B9 returned a Bottom of 342, a LogEC50 of -0.199, a Span of 13200 and a Top of 13500.
